Each block holds one molecule with its values, some of them ahead of it.
Columns and labels:
[1] = biological target: biotinylated (prokaryotic) IL-6 (Homo sapiens, UniProt P05231); test: Surface plasmon resonance (Biacore), biotinylated IL-6 captured on streptavidin sensor chip; format: binding; conditions: purified Fab
Procedure: (§1) The binding kinetics of IL-6-specific Fabs that were able to cross-compete with the B-E8 antibody was assessed using surface plasmon resonance (Biacore). Specifically, biotinylated (prokaryotic) IL-6 was captured on a streptavidin biacore sensor chip (CM5-SA) and different concentrations of purified Fabs were injected during 3 minutes following by a 5 minute wash with buffer. From the washing phase the off-rate (kd) was determined, while from the injection phase the on-rate (ka) was calculated using the concentration and off-rate as parameters. […] The binding kinetics of antagonistic purified Fabs (Table 3) and periplasmic fractions of Fab-expressing bacteria (Table 4) were also evaluated by surface plasmon resonance (Biacore) using both bacterially and eukaryotically produced human IL-6 directly coated on a CM5 chip. The Fabs tested had off-rates between 6×10^−4 and 2×10^−5 s^−1.

[2] = biological target: T1, eukaryotically produced human IL-6 (Homo sapiens, UniProt P05231); test: Surface plasmon resonance (Biacore), eukaryotically produced human IL-6 coated on CM5 chip; format: binding
T1 construct: purchased Humanzyme HZ-1044; host or cells: Human Embryonic kidney cells
T1 sequence (P05231 30-212): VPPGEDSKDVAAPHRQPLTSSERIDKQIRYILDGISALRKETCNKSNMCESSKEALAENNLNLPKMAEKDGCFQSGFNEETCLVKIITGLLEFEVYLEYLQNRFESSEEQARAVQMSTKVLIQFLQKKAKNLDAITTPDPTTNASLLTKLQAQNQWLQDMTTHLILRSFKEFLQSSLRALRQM
Procedure: as §1
(§2) VL chain shuffling was used to improve the affinity of the Fabs 17F10, 18C7, 18C9, 18C11, 20A4, 29B11, 16D2 and 28A6. In this method, the heavy chain of these clones (as a VHCH1 fragment) was reintroduced into the primary phagemid-light chain library (see Example 1). Affinity selections were performed to select for chain shuffled Fabs with an improved affinity for IL-6. The binding kinetics of chain shuffled Fabs were evaluated by surface plasmon resonance (Biacore) using both bacterially and eukaryotically produced human IL-6, and cynomolgus monkey IL-6 (Tables 5-7). The VH and VL amino acid sequences of exemplary IL-6-specific Fabs selected by the VL chain shuffling method are set forth in Table 14 below.
(§3) VH chain shuffling was also used to improve the affinity of the Fab 24D10. In this method, the light chain of 24D10 was reintroduced into the primary phagemid-heavy chain library (see Example 1) and selected using an off-rate assay. In this type of selection, the phage were allowed to bind to antigen on a substrate for 1.5 to 2 hours. At round 2, after 15 washes with PBS-Tween, an additional wash was performed with the presence of excess soluble IL-6. […] This procedure avoids re-binding of such phage to the coated target. […] The binding kinetics of chain shuffled Fabs and the benchmark antibodies, BE8 and GL18, were evaluated by surface plasmon resonance (Biacore) using both bacterially and eukaryotically produced human IL-6 (Tables 8 and 9). The VH and VL amino acid sequences of exemplary IL-6-specific Fabs selected by the VH chain shuffling method are set forth in Table 14 below. […]

cynomolgus monkey IL-6 = biological target: T2, cynomolgus monkey IL-6 (Macaca fascicularis, UniProt P79341); test: Surface plasmon resonance (Biacore), cynomolgus monkey IL-6; format: binding; conditions: purified chain-shuffled Fabs
T2 construct: His
T2 sequence (P79341 28-212): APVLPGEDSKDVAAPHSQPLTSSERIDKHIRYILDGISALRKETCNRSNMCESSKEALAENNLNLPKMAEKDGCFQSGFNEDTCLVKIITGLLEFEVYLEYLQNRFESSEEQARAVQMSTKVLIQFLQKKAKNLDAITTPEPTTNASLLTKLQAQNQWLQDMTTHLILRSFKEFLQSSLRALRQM
Procedure: as §2

[3] = biological target: T3, bacterially produced human IL-6 (Homo sapiens, UniProt P05231); test: Surface plasmon resonance (Biacore), bacterially produced human IL-6 coated on CM5 chip; format: binding; conditions: Bact; purified 24D10 chain-shuffled Fabs
T3 construct: His
T3 sequence (P05231 30-212): as the sequence (P05231 30-212) above
Procedure: as §1, §2, §3

IL-6 = test: Serum amyloid A (SAA) mouse model, induction by injected IL-6; format: in vivo; set-up: SAA, Mean / SAA, Mouse1 / SAA, Mouse2 / SAA, Mouse3 / SAA, Mouse4 / SAA, Mouse5 / SAA, Mouse6: unit not given here; conditions: 0.1 μg IL-6; for SAA, Mean: mean of 6 mice
Procedure: The in vivo efficacy of clones 68F2 and 61H7 was further investigated by measuring the ability of these antibodies to block serum amyloid A (SAA) induction in response to injected IL-6. General methods for performing this assay are set forth in WO2006/119115A2, which is hereby incorporated by reference in its entirety. […] Four hours after administration of the antibody, the mice were injected with 0.1 ug of IL-6. After a further 16 hours, blood was taken from the mice and the concentration of Serum Amyloid A was determined by ELISA. The dose responses are also graphically depicted in FIG. 13.

[4] = Euk IL-6, purified 24D10 chain-shuffled Fabs

Sequence of biotinylated (prokaryotic) IL-6 (P05231 30-212): as above

B1: 28C6: antagonistic IL-6-specific Fab clone from immunized llama (antibody, listed as Lama glama, V domains shown)
VH: QVQLVESGGGLVQPGGSLRLSCAASGFTFSNYYMTWVRQAPGKGLEWVSSIYSFSGDTAYADSVKGRFTISRDNAKNTLYLQMNKLKSEDTAVYYCTRDLGGVVVTANGYDYWGQGTQVTVSS
VL: DIVMTQTPSSLSASLGDRVTITCQASQSISTELSWYQQKPGQTPKLLIYGASRLQTGVPARFSGSGSGTSFTLTISGLEAEDLATYYCLQDYSWPYSFGSGTRL
KA [1]: 4.04e+07 M⁻¹ | Rmax [1]: 22.6 RU | ka [1]: 101000 M⁻¹ s⁻¹ | kd [1]: 0.0025 s⁻¹

B3: 24C9: antagonistic IL-6-specific Fab clone from immunized llama (antibody, listed as Lama glama, V domains shown)
VH: QVQLVESGGGLVQPGGSLRLSCAASGFTFSSYRMYWVRQPPGKGLEWVSAISAGGGSTYYGDSVKGRFTISRDNAKNTVYLQMNSLKPEDTALYYCKKSTWADGESDYWGQGTQVTVSS
VL: QTVVTQEPSLSVSPGGTVTLTCGLSSGSVTASNYPGWFQQTPGQAPRALIYSTNDRHSGVPSRFSGSISGNKAALTITGAQPEDEADYYCALDIGDITEFGGGTHLTVLG
KA [1]: 1.51e+09 M⁻¹ | Rmax [1]: 38.1 RU | ka [1]: 133000 M⁻¹ s⁻¹ | kd [1]: 8.77e-05 s⁻¹ | off-rates (range) [1]: ~10^−5 s^−1 | Kd ([1]; read-out: affinities): 0.66 nM

B4: 24E9: antagonistic IL-6-specific Fab clone from immunized llama (antibody, listed as Lama glama, V domains shown)
VH: EVQLVESGGGLVQPGGSLRLSCAASGFTFSTYAMSWVRQAPGKGPEWVSRISSGGGSTNYADSVKGRFTISRDNAKKTLYLQMKSLKPEDTAVYYCANRAGWGMGDYWGQGTQVTVSS
VL: QTVVTQEPSLSVSPGGTVTLTCGLSSGSVTASNYPGWFQQTPGQAPRALIYSTNDRHSGVPSRFSGSISGNKAALTITGAQPEDEADYYCALDIGDITEFGGGTHLTVLG
KA [1]: 8.38e+08 M⁻¹ | Rmax [1]: 41 RU | ka [1]: 117000 M⁻¹ s⁻¹ | kd [1]: 0.000139 s⁻¹

B5: 24D10: antagonistic IL-6-specific Fab clone, parental of 61H7 (antibody, listed as Lama glama, V domains shown)
VH: QLQVVESGGGLVQPGGSLRLSCAASGFTFSSYAMSWVRQAPGKGPEWVSRISSGGGSTSYADSVKGRFTISRDNAKNTLYLQMNSLKPEDTAVYYCANRAGWGMGDYWGQGTQVTVSS
VL: QTVVTQEPSLSVSPGGTVTLTCGLSSGSVTASNYPGWFQQTPGQAPRALIYSTNDRHSGVPSRFSGSISGNKAALTITGAQPEDEADYYCALDIGDITEFGGGTHLTVLG
ka [2, 4]: 250000 M⁻¹ s⁻¹ | kd [2, 4]: 0.0001 s⁻¹ | binding ([2]; periplasmic fractions ('pur' = purified Fab), IL-6 form not stated): 301 | KA [1]: 3.7e+09 M⁻¹ | Rmax [1]: 40.6 RU | ka [1]: 62700 M⁻¹ s⁻¹ | kd [1]: 1.69e-05 s⁻¹ | off-rates (range) [1]: ~10^−5 s^−1 | ka [3]: 210000 M⁻¹ s⁻¹ | kd [3]: 0.0001 s⁻¹

B6: CNTO 136 (antibody, chains of the INN, looked up, V domains shown)
VH: EVQLVESGGGLVQPGGSLRLSCAASGFTFSPFAMSWVRQAPGKGLEWVAKISPGGSWTYYSDTVTGRFTISRDNAKNSLYLQMNSLRAEDTAVYYCARQLWGYYALDIWGQGTTVTVSS
VL: EIVLTQSPATLSLSPGERATLSCSASISVSYMYWYQQKPGQAPRLLIYDMSNLASGIPARFSGSGSGTDFTLTISSLEPEDFAVYYCMQWSGYPYTFGGGTKVEIK
SAA, Mouse1 (IL-6; Ab dose/mouse 0.31 μg): 158 | SAA, Mouse2 (IL-6; Ab dose/mouse 0.31 μg): 175 | SAA, Mouse3 (IL-6; Ab dose/mouse 0.31 μg): 161 | SAA, Mouse4 (IL-6; Ab dose/mouse 0.31 μg): 134 | SAA, Mouse5 (IL-6; Ab dose/mouse 0.31 μg): 183 | SAA, Mouse6 (IL-6; Ab dose/mouse 0.31 μg): 171 | SAA, Mean (IL-6; Ab dose/mouse 0.31 μg): 163.7 | SAA, Mouse1 (IL-6; Ab dose/mouse 1.25 μg): 107 | SAA, Mouse2 (IL-6; Ab dose/mouse 1.25 μg): 54 | SAA, Mouse3 (IL-6; Ab dose/mouse 1.25 μg): 67 | SAA, Mouse4 (IL-6; Ab dose/mouse 1.25 μg): 56 | SAA, Mouse5 (IL-6; Ab dose/mouse 1.25 μg): 62 | SAA, Mouse6 (IL-6; Ab dose/mouse 1.25 μg): 71 | SAA, Mean (IL-6; Ab dose/mouse 1.25 μg): 69.5 | SAA, Mouse1 (IL-6; Ab dose/mouse 5 μg): 80 | SAA, Mouse2 (IL-6; Ab dose/mouse 5 μg): 80 | SAA, Mouse3 (IL-6; Ab dose/mouse 5 μg): 45 | SAA, Mouse4 (IL-6; Ab dose/mouse 5 μg): 55 | SAA, Mouse5 (IL-6; Ab dose/mouse 5 μg): 70 | SAA, Mouse6 (IL-6; Ab dose/mouse 5 μg): 84 | SAA, Mean (IL-6; Ab dose/mouse 5 μg): 69.0

B10: 20A4: antagonistic IL-6-specific Fab clone, parental of 68F2 (antibody, listed as Lama glama, V domains shown)
VH: EVQLQESGPGLVKPSQTLSLTCTVSGGSITTRYYAWSWIRQPPGKGLEWMGVIDYDGDTYYSPSLKSRTSISWDTSKNQFSLQLSSVTPEDTAVYYCARDPDVVTGFHYDYWGQGTQVTVSS
VL: ALNFMLTQPPSVSGTLGKTVTISCAGTSSDIGGYNYVSWYQQLPGTAPKLLIHRVSTRASGIPDRFSGSKSGNTASLTISGLRSEDEANYYCASYRNFNNAVFGGGTQLTVLG
KA [1]: 1.72e+08 M⁻¹ | Rmax [1]: 48.2 RU | ka [1]: 288000 M⁻¹ s⁻¹ | kd [1]: 0.00168 s⁻¹

Continued, values first:

Koff eukIL-6 ([2]; purified chain-shuffled Fabs): 0.0002 s⁻¹ | Koff HIS-cyIL-6 (cynomolgus monkey IL-6): 0.00017 s⁻¹
B2: 41B5: light chain shuffled Fab of parental 17F10 (antibody, V domains shown)
VH: EVQLQESGPGLVKPSQTLSLTCTVSGGSIATSYYAWSWIRQPPGKGLEWMGVIDYDGDTYYKPSLKSRTSISRDTSKNQFSLQLSSVTPEDTAVYYCARAGLGDSYYLGTYYAMDYWGKGTLVTVSS
VL: QSALTQPPSMSGTLGKTLTISCNGTSSDIGSGDYVSWYQQLPGTTPKLLIEGVTTRASGIPDRFSASKSDNTASLTISGLQSEDEATYYCASYRETNNVVFGGGTHLTVLS

KA [1]: 7.05e+07 M⁻¹ | Rmax [1]: 22.1 RU | ka [1]: 55200 M⁻¹ s⁻¹ | kd [1]: 0.000784 s⁻¹
B7: 18C11: antagonistic IL-6-specific Fab clone from immunized llama (antibody, listed as Lama glama, V domains shown)
VH: EVQLVESGGGLVQPGGSLRLSCAASGFTFSSYAMSWVRQAPGKGLEWVSAINSGGGSTSYADSVKGRFTISRDNAKNTLYLQMNSLKPEDTAVYYCAKEGDTGWKDPMYDYWGQGTQVTVSS
VL: QSVVTQPSALSVTLGQTAKITCQGGGLRSSYAHWYQQKPGQAPVLVIYDDDSRPSGIPERFSGSSSGGRATLTISGAQAEDEGDYYCQSADSSGNAAVFGGGTHLTVLG

KA [1]: 4.67e+07 M⁻¹ | Rmax [1]: 49.9 RU | ka [1]: 55600 M⁻¹ s⁻¹ | kd [1]: 0.00119 s⁻¹
B8: 18C9: antagonistic IL-6-specific Fab clone from immunized llama (antibody, listed as Lama glama, V domains shown)
VH: EVQLVESGGGLVQPGGSLRLSCAASGFTFSRNAMSWVRQAPGKGLEWVSAINSGGGSTSYADSVKGRFTISRDNAKNTLYLQMNSLKPEDTAVYYCAKEGYTGWKDPMYDYWGQGTQVTVSS
VL: LNFMLTQPSALSVTLGQTAKITCQGGSLGSRYAHWYQQKPGQAPVLVIYDDDSRPSGIPERFSGSSSGGRATLTISGAQAEDDGDYYCQSADSSGNASVFGGGTHLTVLG

KA [1]: 6.18e+07 M⁻¹ | Rmax [1]: 51.5 RU | ka [1]: 48400 M⁻¹ s⁻¹ | kd [1]: 0.000784 s⁻¹
B9: 18F8: antagonistic IL-6-specific Fab clone from immunized llama (antibody, listed as Lama glama, V domains shown)
VH: EVQLVESGGGLVQPGGSLRLSCAASGFTFSRNAMSWVRQAPGKGLEWVSAINSGGGSTSYADSVKGRFTISRDNAKNTLYLQMNSLKPEDTAVYYCAKEGYTGWKDPMYDYWGQGTQVTVSS
VL: QSALTQPSALSVTLGQTAKITCQGGSLGSRYAHWYQQKPGQAPVLVIYDDDSRPSGIPERFSGSSSGGRATLTISGAQAEDEGDYYCQSADTSEHIVFGGGTHLTVLG

— patent publication US11827701B2, “IL-6 binding molecules” (argenx BV, priority 2012, dated 2023)
